Data on one substance can be found in article PMC8688422.

In one assay the target is galectin-1 (UniProt P09382). The assay can be described thus: SPR; BIAcore 1000, galectin-1 amine-coupled to CM5 chip, analyte injected at different concentrations, 25 °C, HBS-EP (10 mM HEPES, 150 mM NaCl, 3 mM EDTA, 0.005% P20) pH 7.4; single association, biphasic dissociation. A general note: Surface plasmon resonance follows binding to a sensor surface in real time, without labels.

For another assay, the target named is galectin-1 C3S (UniProt P09382).

By kon is commonly meant the rate constant with which the complex forms.

Bounds are passed on as bounds.

In the assay with galectin-1, platelet factor 4 (PF4/CXCL4) (ligand) registered a K1 (kd1/ka) of 9 µM, a K2 (kd2/ka) of 483 nM, a kd1 (first phase of the biphasic dissociation) of 0.092 s⁻¹ and a kd2 (second phase of the biphasic dissociation) of 0.005 s⁻¹. In the assay with galectin-1, this substance yielded a kon of 10200 M⁻¹ s⁻¹ and a stoichiometry N (CXCL4 per galectin-1) of 2. In the assay with galectin-1 C3S, the fluorescence anisotropy: binding affinity of galectin-1 C3S for the fluorescein-tagged tdga-probe with 8 µM CXCL4 against galectin-1 alone was 10 fold and the fluorescence anisotropy: inhibitory potency of asialofetuin (ASF) on the galectin-1 C3S/tdga-probe interaction with 8 µM CXCL4 against without is greater than 600 fold.
